Reference: PMC7393678, “First Evidence of Acyl-Hydrolase/Lipase Activity From Human Probiotic Bacteria: Lactobacillus rhamnosus GG and Bifidobacterium longum NCC 2705” (Frontiers in Microbiology, 2020)

B1: BlLyp (Bifidobacterium longum NCC2705) (protein)
chain: PPDNRRVSRLIRHTGKGLSGSFPFCSCRSWAKVGVFALPNPPLKGPVVMPINEALFAAMKAASYIKPNAGKSYKLQRVAEELIAKQAPANPKCRVEDAFAPMADGYAVPLRVFTPLVAYGAPLPEALEESSANGTPVASAISAILPAVLPKVLPKILIKESTSSGNADGISGNANTELPSVTPRGTILFFHGGGWTTGGINLYTQACAHMAVRLQRRVISVEYRLAPEYRFPTAVEDCYEVARQLFAGELPISGVGGSVDVDHPQSAAPTAPAGGGDISATIPAPDPDSIVLFGDSAGGNLAAAVSLMARDRGEFMPRTQMLLYPVVGNDYNPETSPFESVRTNGTDYILTAQDMADYIDMYRSSVADLTNPYFAPLTAHDLSNQPRTLVLSAEYCPLRDEDEAYARRLQLVNDNVSCYRIHDGIHGYLLNTSAVGLVATTYRIIEHFLDGTPLEPAPGTGTTANAPEGGDAWQDVLGTD
notes: C-terminal His6 (pET21b); E. coli; monomer at pH 7

Assays:
LrLyp [1] = system: T1, LrLyp; test: p-nitrophenol release at […] nm, initial rates, substrate inhibition model; assay type: biochemical, Lacticaseibacillus rhamnosus; conditions: pH 7, 37°C, 20 mM McIlvaine buffer, substrate 0.1-9 mM from DMSO/Triton X-100 stock; apparent constant from substrate inhibition fit; read-out: KMapp
T1 construct: C-terminal His6 (pET21b); E. coli; probably monomer

LrLyp [2] = system: T1, LrLyp; test: as above; assay type: biochemical, Lacticaseibacillus rhamnosus; conditions: substrate inhibition constant, second site; pH 7, 37°C, 20 mM McIlvaine buffer, substrate 0.1-9 mM
purified protein = substrate: CCCCCCCCCCCC(=O)Oc1ccc([N+](=O)[O-])cc1; test: purified protein; assay type: biochemical, Bifidobacterium longum; conditions: pH 7, 37°C, 20 mM McIlvaine buffer, substrate 0.1-9 mM from DMSO/Triton X-100 stock, apparent constant

Molecule	Km (LrLyp [1]) [mM]	KIapp (LrLyp [2]) [mM]	Km (purified protein) [mM]	Vmax (purified protein) [µmol/min/mg]	kcat (purified protein) [s⁻¹]	kcat/Km (purified protein) [M⁻¹ s⁻¹]
CCCCCCCCCCCC(=O)Oc1ccc([N+](=O)[O-])cc1 [pNP-laurate]	11.4	1.57	–	–	–	–
B1	–	–	2.56	0.05	0.04	16
